# T1: EGF receptor autophosphorylation site peptide DADEpYL-NH2
# T1 chain: DADEYL
# Molecular target: T1, EGF receptor autophosphorylation site …
protein,measurement,value
DSP-3-glutathione-S-transferase (GST) fusion protein (protein) MGNGMNKILPGLYIGNFKDARDAEQLSKNKVTHILSVHDSARPMLEGVKYLCIPAADSPSQNLTRHFKESIKFIHECRLRGESCLVHCLAGVSRSVTLVIAYIMTVTDFGWEDALHTVRAGRSCANPNVGFQRQLQEFEKHEVHQYRQWLKEEYGESPLQDAEEAKNILAAPGILKFWAFLRRL,"Km (phosphatase assay, release of 32P from substrate peptide)",Km=1.2 µM
same,"specific activity (phosphatase assay, release of 32P from substrate peptide)",88.4 nmol/min/mg
